Columns and labels:
[1] = target: T1, human Axl recombinant protein (ACROBiosystems) (human, UniProt P30530 26-449, limits assumed); experiment: SPR (Biorad ProteOn XPR36), antibody immobilised, recombinant AXL as analyte 3.125-50 nM
T1 construct: Coated on ELISA plates; analyte in SPR; also called recombinant AXL; human AXL protein
Excerpt: (§1) All four constructs were purified using Ni-NTA resins and diluted to different concentrations prior to ELISA binding analysis. […] To further determine the dissociation constant (KD value) of the mono specific and bi-specific antibodies to their respective targets, the surface plasmon resonance (SPR) method was utilized (using Biorad ProteOn XPR36). The different antibodies were immobilized in independent channels on a SPR sensor prism (ProteOn XPR36 compatible chip), as ligands. […] Based on the association and dissociation interaction between each of the recombinant proteins and the respective antibodies, respective KD values were calculated.

[2] = target: T2, human PD-1 receptor overexpressed on Bw-PD-1 reporter cells (fusion of PD-1 with a zeta chain) (human, UniProt Q15116 25-288); experiment: cell-based or functional assay
T2 sequence (Q15116 25-288): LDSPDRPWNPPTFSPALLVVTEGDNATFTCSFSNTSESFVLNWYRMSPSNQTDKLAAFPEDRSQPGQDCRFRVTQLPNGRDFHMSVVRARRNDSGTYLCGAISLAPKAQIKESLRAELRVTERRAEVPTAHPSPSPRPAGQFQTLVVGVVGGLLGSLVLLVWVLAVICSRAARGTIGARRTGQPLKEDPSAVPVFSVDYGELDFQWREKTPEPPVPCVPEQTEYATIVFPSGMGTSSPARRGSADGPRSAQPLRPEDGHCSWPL

[3] = target: T3, AXL expressed on HNSCC tumor cells (SCC47, SNU1076, FaDu) (human, UniProt P30530 26-894); experiment: cell-based or functional assay
[4] = target: T2, human PD-1 receptor overexpressed on …; experiment: cell-based or functional assay; remark: listed apart in the source
[5] = target: T3, AXL expressed on HNSCC tumor cells …; experiment: cell-based or functional assay; remark: listed apart in the source
[6] = target: T4, human PD-1 recombinant protein (ACROBiosystems) (human, UniProt Q15116 25-167, biotinylated (in the ELISA, captured on streptavidin)); experiment: SPR (Biorad ProteOn XPR36), antibody immobilised, recombinant PD-1 as analyte 3.125-50 nM
T4 construct: Analyte in SPR; also called recombinant PD-1; human PD-1 protein
T4 sequence (Q15116 25-167 limits assumed): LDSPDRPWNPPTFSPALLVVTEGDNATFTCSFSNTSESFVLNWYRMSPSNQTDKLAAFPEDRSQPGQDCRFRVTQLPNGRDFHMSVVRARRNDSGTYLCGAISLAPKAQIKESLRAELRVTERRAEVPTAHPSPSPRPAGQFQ
Excerpt: as §1

[7] = target: T4, human PD-1 recombinant protein …; experiment: ELISA: biotinylated human PD-1 on streptavidin plate, dilutions of secreted construct, anti-human-Fc-HRP
Method: (§2) The plates were then blocked, and incubated with serial dilutions of the antibodies. Next, anti-human-FC-HRP (Jackson laboratories) was added to the plates and a reaction was developed with TMB substrates. Once color developed H2SO4 was used to end the reaction. Plates were washed with PBST (PBS containing 0.05% Tween-20) between the steps. Each of the mentioned steps was carried out for 1 hour at room temperature. The plates were then read on a spectrophotometer at 450 nm.

[8] = target: T1, human Axl recombinant protein …; experiment: ELISA: recombinant human AXL on the plate, purified antibody 0 to 50 nM, anti-human-Fc-HRP
Method: as §2, §1

[9] = target: T1, human Axl recombinant protein …; experiment: ELISA: human AXL recombinant protein on the plate, dilutions of secreted construct, anti-human-Fc-HRP
Method: as §2

[10] = target: T4, human PD-1 recombinant protein …; experiment: ELISA: biotinylated recombinant human PD-1 on streptavidin plate, purified antibody 0 to 10 nM, anti-human-Fc-HRP
Method: as §2, §1

B1: Bi-3 bi-specific construct PD1-Fc-AXL (anti PD1 scFv-Fc-anti AXL scFv) (bispecific antibody)
chain: EIVLTQSPATLSLSPGERATLSCRASQSVSSYLAWYQQKPGQAPRLLIYDASNRATGIPARFSGSGSGTDFTLTISSLEPEDFAVYYCQQSSNWPRTFGQGTKVEIKGGGGSGGGGSGGGGSGGGGSQVQLVESGGGVVQPGRSLRLDCKASGITFSNSGMHWVRQAPGKGLEWVAVIWYDGSKRYYADSVKGRFTISRDNSKNTLFLQMNSLRAEDTAVYYCATNDDYWGQGTLVTVSSGGGGSGGGGSGGGGSGGGGSRSVECPPCPAPPVAGPSVFLFPPKPKDTLMISRTPEVTCVVVDVSHEDPEVKFNWYVDGVEVHNAKTKPREEQYNSTYRVVSVLTVLHQDWLNGKEYKCKVSNKGLPSSIEKTISKAKGQPREPQVYTLPPSREEMTKNQVSLTCLVKGFYPSDIAVEWESNGQPENNYKTTPPVLDSDGSFFLYSKLTVDKSRWQQGNVFSCSVMHEGLHNHYTQKSLSLSPGKGGGGSGGGGSGGGGSGGGGSDIQMTQSPSSLSASVGDRVTITCRASQDVSTAVAWYQQKPGKAPKLLIYSASFLYSGVPSRFSGSGSGTDFTLTISSLQPEDFATYYCQQSYTTPPTFGQGTKVEIKGGGGSGGGGSGGGGSGGGGSEVQLVESGGGLVQPGGSLRLSCAASGFSLSGSWIHWVRQAPGKGLEWVGWINPYRGYAYYADSVKGRFTISADTSKNTAYLQMNSLRAEDTAVYYCAREYSGWGGSSVGYAMDYWGQGTLVHHHHHH
notes: Anti-PD-1 scFv at the N-terminus and anti-AXL scFv at the C-terminus of an engineered human IgG1 Fc, C-terminal His tag; also called BsAbI-AXL/PD-1; BsAb-AXL/PD1 (Bi-3)
Kd [1]: 60 nM | koff [1]: 0.00247 s⁻¹ | kon [1]: 41100 M⁻¹ s⁻¹ | %Gated 'Doublets & Focused' (image stream, Area BF against Aspect Ratio BF), FaDu-plx GFP cells mixed with DiD-stained Bw-PD-1 cells; same figure: No treatment 690 / 7.6, Combo 442 / 4.9 [2]: 17.8 %Gated | %Gated 'Doublets & Focused' (image stream, Area BF against Aspect Ratio BF), FaDu-plx GFP cells mixed with DiD-stained Bw-PD-1 cells; same figure: No treatment 690 / 7.6, Combo 442 / 4.9 [3]: 17.8 %Gated | FaDu GFP / Bw-PD-1 mCherry cell doublets by flow cytometry, against the combination of mono Abs and no treatment [4]: 2.5 fold | FaDu GFP / Bw-PD-1 mCherry cell doublets by flow cytometry, against the combination of mono Abs and no treatment [5]: 2.5 fold | Kd [6]: 5.82 nM | koff [6]: 0.000743 s⁻¹ | kon [6]: 128000 M⁻¹ s⁻¹

B2: Bi-1 bi-specific construct PD1-AXL-Fc (anti PD1 scFv-anti AXL scFv-Fc) (bispecific antibody)
chain: EIVLTQSPATLSLSPGERATLSCRASQSVSSYLAWYQQKPGQAPRLLIYDASNRATGIPARFSGSGSGTDFTLTISSLEPEDFAVYYCQQSSNWPRTFGQGTKVEIKGGGGSGGGGSGGGGSGGGGSQVQLVESGGGVVQPGRSLRLDCKASGITFSNSGMHWVRQAPGKGLEWVAVIWYDGSKRYYADSVKGRFTISRDNSKNTLFLQMNSLRAEDTAVYYCATNDDYWGQGTLVTVSSGGGGSGGGGSGGGGSGGGGSDIQMTQSPSSLSASVGDRVTITCRASQDVSTAVAWYQQKPGKAPKLLIYSASFLYSGVPSRFSGSGSGTDFTLTISSLQPEDFATYYCQQSYTTPPTFGQGTKVEIKGGGGSGGGGSGGGGSGGGGSEVQLVESGGGLVQPGGSLRLSCAASGFSLSGSWIHWVRQAPGKGLEWVGWINPYRGYAYYADSVKGRFTISADTSKNTAYLQMNSLRAEDTAVYYCAREYSGWGGSSVGYAMDYWGQGTLVGGGGSGGGGSGGGGSGGGGSRSVECPPCPAPPVAGPSVFLFPPKPKDTLMISRTPEVTCVVVDVSHEDPEVKFNWYVDGVEVHNAKTKPREEQYNSTYRVVSVLTVLHQDWLNGKEYKCKVSNKGLPSSIEKTISKAKGQPREPQVYTLPPSREEMTKNQVSLTCLVKGFYPSDIAVEWESNGQPENNYKTTPPVLDSDGSFFLYSKLTVDKSRWQQGNVFSCSVMHEGLHNHYTQKSLSLSPGKHHHHHH
notes: Tandem anti-PD-1 scFv (Nivolumab-derived) and anti-AXL scFv (YW327.6S2-derived), engineered human IgG1 Fc (pFUSE-hIgG1e3-Fc2), C-terminal His tag; also called BsAbI-AXL/PD-1; BsAb-AXL/PD1
binding result [7]: binds | EC50 (read off the curve) [8]: ~5 nM

B3: Bi-2 bi-specific construct AXL-PD1-Fc (anti-AXL scFv-anti PD1 scFv-Fc) (bispecific antibody)
chain: DIQMTQSPSSLSASVGDRVTITCRASQDVSTAVAWYQQKPGKAPKLLIYSASFLYSGVPSRFSGSGSGTDFTLTISSLQPEDFATYYCQQSYTTPPTFGQGTKVEIKGGGGSGGGGSGGGGSGGGGSEVQLVESGGGLVQPGGSLRLSCAASGFSLSGSWIHWVRQAPGKGLEWVGWINPYRGYAYYADSVKGRFTISADTSKNTAYLQMNSLRAEDTAVYYCAREYSGWGGSSVGYAMDYWGQGTLVGGGGSGGGGSGGGGSGGGGSEIVLTQSPATLSLSPGERATLSCRASQSVSSYLAWYQQKPGQAPRLLIYDASNRATGIPARFSGSGSGTDFTLTISSLEPEDFAVYYCQQSSNWPRTFGQGTKVEIKGGGGSGGGGSGGGGSGGGGSQVQLVESGGGVVQPGRSLRLDCKASGITFSNSGMHWVRQAPGKGLEWVAVIWYDGSKRYYADSVKGRFTISRDNSKNTLFLQMNSLRAEDTAVYYCATNDDYWGQGTLVTVSSGGGGSGGGGSGGGGSGGGGSRSVECPPCPAPPVAGPSVFLFPPKPKDTLMISRTPEVTCVVVDVSHEDPEVKFNWYVDGVEVHNAKTKPREEQYNSTYRVVSVLTVLHQDWLNGKEYKCKVSNKGLPSSIEKTISKAKGQPREPQVYTLPPSREEMTKNQVSLTCLVKGFYPSDIAVEWESNGQPENNYKTTPPVLDSDGSFFLYSKLTVDKSRWQQGNVFSCSVMHEGLHNHYTQKSLSLSPGKHHHHHH
notes: Tandem anti-AXL scFv and anti-PD-1 scFv, engineered human IgG1 Fc, C-terminal His tag; also called BsAbI-AXL/PD-1
binding result [9]: binds | binding result [7]: binds

B4: mono-specific anti-PD-1 scFv-Fc PD-1-2 (from Nivolumab) (Fc fusion)
chain: EIVLTQSPATLSLSPGERATLSCRASQSVSSYLAWYQQKPGQAPRLLIYDASNRATGIPARFSGSGSGTDFTLTISSLEPEDFAVYYCQQSSNWPRTFGQGTKVEIKGGGGSGGGGSGGGGSGGGGSQVQLVESGGGVVQPGRSLRLDCKASGITFSNSGMHWVRQAPGKGLEWVAVIWYDGSKRYYADSVKGRFTISRDNSKNTLFLQMNSLRAEDTAVYYCATNDDYWGQGTLVTVSSGGGGSGGGGSGGGGSGGGGS
notes: the tie is by this chain of statements; also called mono-PD-1; mono PD-1; not shown: engineered human IgG1 Fc (hinge, CH2, CH3) of plasmid pFUSE-hIgG1e3-Fc2; C-terminal His tag
binding result [8]: no binding (tested: 50 nM)

B5: mono-specific anti-AXL scFv-Fc AXL2 (from YW327.6S2) (Fc fusion)
chain: DIQMTQSPSSLSASVGDRVTITCRASQDVSTAVAWYQQKPGKAPKLLIYSASFLYSGVPSRFSGSGSGTDFTLTISSLQPEDFATYYCQQSYTTPPTFGQGTKVEIKGGGGSGGGGSGGGGSGGGGSEVQLVESGGGLVQPGGSLRLSCAASGFSLSGSWIHWVRQAPGKGLEWVGWINPYRGYAYYADSVKGRFTISADTSKNTAYLQMNSLRAEDTAVYYCAREYSGWGGSSVGYAMDYWGQGTLVGGGGSGGGGSGGGGSGGGGS
notes: also called mono-AXL; AXL2 scFv-Fc; not shown: engineered human IgG1 Fc (hinge, CH2, CH3) of plasmid pFUSE-hIgG1e3-Fc2; C-terminal His tag
Kd [1]: 20.9 nM | koff [1]: 0.00102 s⁻¹ | kon [1]: 49000 M⁻¹ s⁻¹ | binding result [10]: no binding (tested: 10 nM)

— patent publication US20240417477A1 (B G NEGEV TECHNOLOGIES AND APPLICATIONS LTD AT BEN GURION …, published 2024)
